Assay results reported in patent US20130116417.

Tested on: monoclonal antibody 2G12 (anti-HIV gp120)
Assay: filter

| Sequence | Kd (each U is 5-ethynyl-dU glycosylated with Man4-azide by CuAAAC click (10 sites), T in the primer region unmodified, 20 mM Tris pH 7.5, 100 mM NaCl, 2 mM MgSO4, 0.02% Tween-20, room temperature, 3 h, after 7 SELMA rounds) [nM] | binding (library template (-)-strand listed, assayed (+)-strand has 5-ethynyl-dU in place of T, glycosylated with Man4-azide, initial random library, less than 3% bound) [% bound] |
| --- | --- | --- |
| CACCAAATACGGGTACGGGCCCGGCUGUUUCAGAUGCUGUAAGUAAGGUGACUGCGGAACAACAG [Man4-16 (clone 16 glyco-DNA)] | 220 | – |
| CTGTTGTTCCGCAGTCACCTTNNNNNNNNNNNNNNNNNNNNNNNNNCCCGTACCCGTATTTGGTGGCAAGGATGACAAGGATTTTATATTTTATATTTTTATTTTATTATCGGGTACGGG [initial random glyco-DNA library] | – | < 3 |
